Measured values reported in article doi:10.1101/2025.05.03.651265.

Legend:
[1] = target: E2CTD, C-terminal toxin domain of the GA1 T6SS effector E2 from Parabacteroides sp. D25 (Parabacteroides sp. D25); assay: SEC-MALS; co-purified E2CTD-I2 complex at 2 mg/ml, Superdex 200 Increase 10/300, MiniDAWN detector and Optilab
[2] = target: E2CTD, C-terminal toxin domain of the GA1 T6SS effector E2 from Parabacteroides sp. D25 (Parabacteroides sp. D25); assay: ITC; conditions: natural protein

For “cognate I2 immunity protein from Parabacteroides sp. D25, untagged, co-expressed with E2CTD (natural protein)”, the stoichiometry N [1] was 1.
Work on “cognate I2 immunity protein from Parabacteroides sp. D25, expressed and purified alone” yielded a Kd [2] of 27 nM.
Work on “I2^PV, divergent cognate I2 protein from P. vulgatus AF31-3” yielded a Kd [2] of 5.2 nM.
Substance “I2^BU, divergent cognate I2 protein from B. uniformis 82G1” has a Kd [2] of 18 nM.
